B1: FM PEP: recombinant prolyl endopeptidase from Flavobacterium meningosepticum (Genbank D10980) (protein)
chain: QNSNVLKYPETKKVSHTDTYFGTQVSDPYRWLEDDRAEDTKAWVQQEVKFTQDYLAQIPFRDQLKKQLMDIWNYEKISAPFKKGKYTYFSKNDGLQAQSVLYRKDAAGKTEVFLDPNKFSEKGTTSLASVSFNKKGTLVAYSISEGGSDWNKIIILDAETKKQLDETLLDVKFSGISWLGDEGFFYSSYDKPKEGSVLSGMTDKHKVYFHKLGTKQSQDELIIGGDKFPRRYIGAYVTDDQRYLVVSAANATNGNELYIKDLKNKTDFIPIITGFDSNVNVADTDGDTLYLFTDKDAPNKRLVKTTIQNPKAETWKDVIAETSEPLEINTGGGYFFATYMKDAIDQVKQYDKNGKLVRAIKLPGSGNASGFGGEKTEKDLYYSFTNYITPPTIFKYNVTTGNSEVYQKPKVKFNPENYVSEQVFYTSSDGTKIPMMISYKKGLKKDGKNPTILYSYGGFNISLQPAFSVVNAIWMENGGIYAVPNIRGGGEYGKKWHDAGTKMQKKNVFNDFIAAGEYLQKNGYTSKEYMALSGRSNGGLLVGATMTMRPDLAKVAFPGVGVLDMLRYNKFTAGAGWAYDYGTAEDSKEMFEYLKSYSPVHNVKAGTCYPSTMVITSDHDDRVVPAHSFKFGSELQAKQSCKNPILIRIETNAGHGAGRSTEQVVAENADLLSFALYEMGIKSLK
B2: MX PEP: novel recombinant prolyl endopeptidase from Myxococcus xanthus (Genbank AF127082, SEQ ID NO:47) (protein, listed as Myxococcus xanthus)
chain: MSYPATRAEQVVDTLHGVQVADPYRWLEDEKAPEVQTWMTAQNAHAREALAKFPGREALAARFKELFYTDSVSTPSRRNGRFFYVRTHKDKEKAILYWRQGESGQEKVLLDPNGWSKDGTVSLGTWAVSWDGKKVAFAQKPNAADEAVLHVIDVDSGEWSKVDVIEGGKYATPKWTPDSKGFYYEWLPTDPSIKVDERPGYTTIRYHTLGTEPSKDTVVHERTGDPTTFLQSDLSRDGKYLFVYILRGWSENDVYWKRPGEKDFRLLVKGVGAKYEVHAWKDRFYVLTDEGAPRQRVFEVDPAKPARASWKEIVPEDSSASLLSVSIVGGHLSLEYLKDATSEVRVATLKGKPVRTVQLPGVGAASNLMGLEDLDDAYYVFTSFTTPRQIYKTSVSTGKSELWAKVDVPMNPEQYQVEQVFYASKDGTKVPMFVVHRKDLKRDGNAPTLLYGYGGFNVNMEANFRSSILPWLDAGGVYAVANLRGGGEYGKAWHDAGRLDKKQNVFDDFHAAAEYLVQQKYTQPKRLAIYGGSNGGLLVGAAMTQRPELYGAVVCAVPLLDMVRYHLFGSGRTWIPEYGTAEKPEDFKTLHAYSPYHHVRPDVRYPALLMMAADHDDRVDPMHARKFVAAVQNSPGNPATALLRIEANAGHGGADQVAKAIESSVDLYSFLFQVLDVQGAQGGVAAQGR

Assays:
[1] = Kinetic analysis with reference substrate Succinyl-Ala-Pro-pNA; type: biochemical; details: Succinyl-Ala-Pro-p-nitroanilide hydrolysis
Experimental: Activity Assays. Post-proline cleavage activity was measured using Z-Gly-Pro-p-nitroanilide and Succinyl-Ala-Pro-p-nitroanilide (Bachem, CA). Z-Gly-Pro-pNA was dissolved in a PBS:water:dioxane (8:1.2:0.8) assay mixture. The concentration of Z-Gly-Pro-pNA was varied from 100-600 μM. Although the substrate Z-Gly-Pro-pNA was effective in detecting enzyme activity, its insolubility at higher concentrations precluded kinetic measurements under substrate-saturated conditions. In contrast, Succinyl-Ala-Pro-pNA, had the advantage of high water solubility at all pH values tested, and was therefore a preferred substrate for kinetic studies. […] Reaction mixtures ([…] consisted of 30 μl of 10× pH buffer, final concentration of 0.01 μM enzyme, and Suc-Ala-Pro-pNA to final concentrations between 100 μM to 4 mM.
Kinetic Analysis with Reference Substrates. The activity of each PEP was initially evaluated using the standard chromogenic substrate succinyl-Ala-Pro-pNA. Release of the p-nitroaniline was detected at 410 nm, and kinetic data was fitted to the Michaelis-Menten relationship. Succinyl-Ala-Pro-pNA was selected as a reference substrate instead of the more commonly used Z-Gly-Pro-pNA due to the low solubility of the latter substrate, which necessitated use of co-solvents. The calculated kcat and KM values of FM, MX and SC PEPs for succinyl-Ala-Pro-pNA are tabulated (Table 3). […] The higher specificity of MX can be attributed mainly to its higher affinity for the substrate, as reflected in the KM.

[2] = test system: trypsin, chymotrypsin, elastase and carboxypeptidase A; test: Pancreatic protease stability; type: in vitro ADME; details: pH 6.5
Experimental: FIG. 9. Resistance of the FM PEP and the MX PEP to inactivation by gastric and pancreatic enzymes. Pancreatic enzyme stability was evaluated by treating 5 U/ml of the FM PEP and the MX PEP with 1 mg/ml trypsin, 1 mg/ml chymotrypsin, 0.2 mg/ml elastase and 0.2 mg/ml carboxypeptidase A (40 mM phosphate, pH=6.5). Pepsin stability was tested by treating the FM PEP and the MX PEP (5 U/ml) with 1 mg/ml pepsin (pH=2, 20 mM HCl).
Gastric and Pancreatic Protease Stability. […] Absorption was measured at 410 nm for 1 to 2 min every 10 s to assay residual activity. […] Enzyme activities are expressed as a percentage of the maximum activity, typically observed at the zero time point.
PEP Stability. […] We therefore evaluated the extent to which the activity of each PEP remains intact after 10 min of incubation at selected pH values between 1.6 and 3.9. […] Since therapeutic efficacy would require a PEP to act upon gluten in conjunction with pancreatic proteases that are secreted into the duodenum, the resistance of FM PEP and MX PEP toward both gastric and pancreatic enzymes was evaluated. For this we pre-incubated the enzymes with physiological quantities of either pepsin (at pH 2) or a cocktail comprising of trypsin, chymotrypsin, elastase and carboxypeptidase A (at pH 6.5).

Molecule | Kcat [1] | Km [1] | resistance to pancreatic enzymes [2]
B1 | 33 s⁻¹ | 910 µM | remarkably stable to destruction
B2 | 51 s⁻¹ | 350 µM | remarkably stable to destruction
